In patent publication US20240043504A1 (published 2024):

How the values were obtained:
[1] = biological target: SARS-CoV-2 Spike Protein (S1 Subunit, Fc Tag) (Sino 40591-V02H) (SARS-CoV-2, UniProt P0DTC2 16-685); assay: Luminex, supernatant
SARS-COV-2 RBD-mFc = SARS-COV-2 RBD-mFc (SARS-CoV-2); assay: Luminex beads
[2] = biological target: SARS-CoV-2 Spike Protein (S1 Subunit, His Tag) (Sino 40591-V08H) (SARS-CoV-2, UniProt P0DTC2 16-685); assay: Luminex, supernatant

B1: mAb10985 (antibody, V domains shown)
VH: EVQLVESGGGLVQPGRSLRLSCAASGFTFDDYAMHWVRQAPGKGLEWVSGISWNRGSIGYADSVKGRFTISRDNAKNSLYLQMSSLRAEDTALYYCAKDGERWDSVVVPSARNGMDVWGQGTTVTVSS
VL: QSVLTQPPSVSGAPGQRVTISCTGSSSNIGAGYDVHWYQQLPGTAPKLLIYGNSNRPSGVPDRFSGSKSGTSASLAITGLQAEDEADYYCQSYDSSLSGSYVFGTGTKVTVLG
MFI [1]: 16200 MFI

B2: mAb11004 (antibody, V domains shown)
VH: QVQLVESGGGVVQPGRSLRLSCVASGFTFSIYGMDWVRQAPGKGLEWVAVISYDGSNKYYADSVKGRFTISRDNSKNTLYLQMNSLRPEDTAVYYCAKDREAAADAFDIWGQGTMVTVSS
VL: DIQMTQSPSSVSASVGDRVTITCRASQGISSWLAWYQQKPGKAPKLLIYAASSLHSGVPSRFSGSGSGTDFTLTISSLQPEDFATYYCQQANSFRLTFGGGTKVEIK
binding result (SARS-COV-2 RBD-mFc): binds

B3: mAb10913 (antibody, V domains shown)
VH: EVQLVESGGGLVQPGGSLRLSCAASGFTFRNYEMNWVRQAPGKGLEWVSYITSSGSTMYYADSVKGRFTISRDNAKNSLYLQMNSLRAEDTAVYYCARDGFYYYYAMDVWGQGTTVTVSS
VL: QSVLTQPPSVSAAPGQKVTISCSGSSSNIGNNYVSWYQQLPGTAPKLLIYDNNKRPSGIPDRFSGSKSGTSATLGITGLQTGDEADYYCGTWDSSLSVGRVFGTGTKVTVLG
MFI [1]: 18900 MFI
MFI [2]: 24900 MFI

B4: mAb10913 (antibody, V domains shown)
VH: EVQLVESGGGLVQPGGSLRLSCAASGFTFRNYEMNWVRQAPGKGLEWVSYITSSGSTMYYADSVKGRFTISRDNAKNSLYLQMNSLRAEDTAVYYCARDGFYYYYAMDVWGQGTTVTVSS
VL: QSVLTQPPSVSAAPGQKVTISCSGSSSNIGNNYVSWYQQLPGTAPKLLIYDNNKRPSGIPDRFSGSKSGTSATLGITGLQTGDEADYYCGTWDSSLSVGRVFGTGTKVTVLG
binding result (SARS-COV-2 RBD-mFc): binds

B5: mAb10998 (antibody, V domains shown)
VH: EVQLVESGGGLVHPGGSLRLSCAASGLTVSSNYMSWVRQAPGKGLEWVSVIYSGGSTYYADSVKGRFTISRHNSKNTLFLQMNSLRAEDTAVYYCARDRPITGTTLDVWGQGTTVTVSS
VL: DIQMTQSPSSLFASVGDRVTITCRASQSISSYLNWYQQKPGKAPKLLIYAASSLQSGVPSRFSGSGSGTDFTLTISSLQPEDFAFYYCQQTYSTPPITFGQGTRLEIK
binding result (SARS-COV-2 RBD-mFc): binds

B6: mAb10932 (antibody, V domains shown)
VH: EVQLVESGGGLVQSGGSLRLSCAASGLTVSSNYMSWVRQAPGKGLEWVSVIYSGGSTFYSDSVKGRFTISRHNSKNTLYLQMNSLRAEDTAVYYCARARGDAFDIWGQGTMVTVSS
VL: not shown
MFI [1]: 17600 MFI
MFI [2]: 22100 MFI

B7: mAb10956 (antibody, V domains shown)
VH: EVQLVESGGGLVQPGGSLRLSCAASGLTVSSNYMSWVRQAPGKGLEWVSVIYSGGSTFYADSVKGRFTISRDNSKNTLYLQMNSLRAEDTAVYYCARDLIKYGMDVWGQGTTVTVSS
VL: not shown
binding result (SARS-COV-2 RBD-mFc): binds

B8: mAb10957 (antibody, V domains shown)
VH: EVQLVESGGGLVQPGGSLRLSCAASGVTVSSNYMSWVRQAPGKGLEWVSVIYSGGSTFYADSVKGRFTISRDNSKNTLFLQMNSLRIEDTAVYYCARDLGPYGMDVWGQGTTVTVSS
VL: DIQLTQSPSFLSASVGDRVTITCRASQGISSYLAWYQQKPGKAPKLLIYAASTLQSGVPSRFSGSGSGTQFILTISSLQPEDFATYYCQQLNSYPGFTFGPGTKVDIKR
binding result (SARS-COV-2 RBD-mFc): binds

B9: mAb10914 (antibody, V domains shown)
VH: EVQLVESGGGLVQPGGSLRLSCAASGLIVSRNYMIWVRQAPGKGLEWVSVIYSGGSTFYADSVKGRFTISRHNSKNTLYLQMNSLRAEDTAVYYCARDLGTGGMDVWGQGTTVTVSS
VL: DIQLTQSPSFLSASVGDRVTITCWASQGISSYLAWYQQKPGKAPKLLIYAASTLQSGVPSRFSGSGSGTEFTLTISSLQPEDFATYYCQQLNSYPLTFGGGTKVEIKR
binding result (SARS-COV-2 RBD-mFc): binds

B10: mAb10955 (antibody, V domains shown)
VH: EVQLVESGGGLVQPGGSLRVSCAASGFTVSRNYMSWVRQAPGKGLEWVSVIYSGGSTFYADSVKGRFTISRDNSKNTLYLQMNSLRAEDTAIYYCARYIPRFDPWGQGTLVTVSS
VL: DIQMTQSPSSLSASVGDRVTITCQASQDISNYLNWFQQKPGRAPKLLIYDASNLETGVPSRFSGSGSGTDFTFTISSLQPEDIATYYCQQYDNLPITFGQGTRLEIKR
binding result (SARS-COV-2 RBD-mFc): binds

B11: mAb11002 (antibody, V domains shown)
VH: EVQLVESGGGLVQPGGSLRLSCAASGFTVSSNYMSWVRQAPGKGLEWVSVIYSGGSTFYADSVKGRFTISRHNSKNTLYLQMNSLRAEDTAVYYCAREGYGMDVWGQGTTVTVSS
VL: not shown
binding result (SARS-COV-2 RBD-mFc): binds

B12: mAb10954 (antibody, V domains shown)
VH: EVQLVESGGGLVQPGGSLRLSCAASGITVSSNYMSWVRQAPGKGLEWVSLIYSGGSTYYADSVKGRFTISRDNSKNTLYLQMNSLRVEDTAVYYCARDHGMAAAGYNYWGQGTLVTVSS
VL: DIQMTQSPSSLSASVGDRVTITCQASQDINKYLNWYQQKPGKAPKLLIYDASNLETGVPSRFSGSGSGTDFTFTINSLQPEDFATYFCQQYDNLPPAFGQGTKVEIKR
binding result (SARS-COV-2 RBD-mFc): binds

B13: mAb10935 (antibody, V domains shown)
VH: EVQLVESGGGLVQPGGSLRLSCAASGFTVSSNYMSWVRQAPGKGLEWVSLIYSGGSTYYADSVKGRFTISRHNSKNTLYLQMNSLRSEDTAVYYCARVPLGDYYYGMDVWGQGTTVTVSS
VL: DIQMTQSPSSLSASVGDRVTITCQASQDINKYLNWYQQKPGKAPKLLIYDASNLETGVPSRFSGSGSGTDFTFTISSLQPEDIATYYCQQSDNLPLTFGGGTKVEIKR
MFI [1]: 20000 MFI
MFI [2]: 25600 MFI

B14: mAb10934 (antibody, V domains shown)
VH: not shown
VL: DIQMTQSPSSLSASVGDRVTITCQASQDIWNYINWYQQKPGKAPKLLIYDASNLKTGVPSRFSGSGSGTDFTFTISSLQPEDIATYYCQQHDDLPPTFGQGTKVEIKR
MFI [1]: 20600 MFI
MFI [2]: 27500 MFI

B15: mAb11006 (antibody, V domains shown)
VH: EVQLVESGGGLVQPGGSLRLSCAASGFIVSRNYMSWVRQAPGKGLEWVSVIYSGGSTFYADSVKGRFTISRHNSKNTLYLQMNSLKAEDTAVYYCARELRGYFDYWGQGTLVTVSS
VL: DIQLTQSPSFLSASVGDRVTITCWASQGISSYLAWYQQKPGKAPKLLIYAASTLQSGVPSRFSGSGSGTEFTLTISSLQPEDFATYYCQLLNSYPYTFGQGTKLEIK
binding result (SARS-COV-2 RBD-mFc): binds

B16: mAb11008 (antibody, V domains shown)
VH: EVQLVESGGGLVQPGGSLRLSCAASGFTVSSNYMTWVRQAPGKGLEWVSVIYSGGSTFYADSVKGRFTISRHNSENTLYLQMNSLRAEDTAVYYCARDLAAAGTDYWGQGALVTVSS
VL: DIQLTQSPSFLSASVGDRVTITCWASQGISSYLAWYQQKPGKAPKLLIYAASTLQSGVPSRFSGSGSGTEFTLTISSLQPDDFATYYCQHLNSYLYTFGQGTKLEIK
binding result (SARS-COV-2 RBD-mFc): binds

B17: mAb10915 (antibody, V domains shown)
VH: EVQLVESGGGLVQPGGSLRLSCAASGFTVSSNYMNWVRQAPGKGLEWVSVIYSGGSTFYADSVKGRFTISRHNSKNTLYLQMNSLRPEDTAVYYCARDLGGYFDYWGQGTLVTVSS
VL: not shown
binding result (SARS-COV-2 RBD-mFc): binds

B18: mAb11010 (antibody, V domains shown)
VH: QVQLVESGGGVVQPGRSLRLSCAASGFTFSSYGMHWVRQAPGKGLEWVAVISYDGSYKYYADSVKGRFTISRDNSKNTLYLQMNSLRAEDTAVYYCAIDGGTVTTIFDYWGQGTLVTVSS
VL: not shown
binding result (SARS-COV-2 RBD-mFc): binds
